Test results: patent publication US20070060521A1 (UNIVERSITY OF SOUTH FLORIDA A PUBLIC CORPORATION OF THE …, published 2007)
Non-standard residues stand in square brackets, D forms with d. No end group written: not given here. pY = N[C@@H](Cc1ccc(OP(=O)(O)O)cc1)C(=O)O

Target: STAT3 with DNA-binding activity in vitro (activated STAT3 dimers)
Test: cell-based or functional assay

IC50, Disruption of STAT3 DNA-binding Activity [µM]	Binder
421	Ac-[pY]-Leu-Lys [Ac-Y*LK (SEQ ID NO:31)]
280	P[pY]LKTK [PY*LKTK (SEQ ID NO:20)]
365	A[pY]LK [AY*LK (SEQ ID NO:30)]

Further lines, the binder ahead of its results:

Binder	IC50, Disruption of STAT3 DNA-binding Activity [µM]
P[pY]LA [PY*LA (SEQ ID NO:35)]	326
Ac-P[pY]LKTK [Ac-PY*LKTK (SEQ ID NO:32)]	212
Ac-P[pY]LK [Ac-PY*LK (SEQ ID NO:34)]	156
